# Laboratory results taken from PMC9931213, “Structural basis for ATG9A recruitment to the ULK1 complex in mitophagy initiation” (Science Advances, 2023).
# B1: MBP-FOLDON-ATG9A (692–839) [bacteriophage T4 | human] / TSF-ATG13^HORMA:GST-ATG101 complex, wild type [human] (parent complex)
# chain 1: QLQSLVLSEYASTEMSLHALYMHQLHKQQAQAEPERHVWHRRESDESGESAPDEGGEGARAPQSIPRSASYPCAAPRPGAPETTALHGGFQRRYGGITDPGTVPRVPSHFSRLPLGGWAEDGQSASRHPEPVPEEGSEDELPPQVHKV
# chain 2: METDLNSQDRKDLDKFIKFFALKTVQVIVQARLGEKICTRSSSSPTGSDWFNLAIKDIPEVTHEAKKALAGQLPAVGRSMCVEISLKTSEGDSMELEIWCLEMNEKCDKEIKVSYTVYNRLSLLLKSLLAITRVTPAYRLSRKQGHEYVILYRIYFGEVQLSGLGEGFQTVRVGTVGTPVGTITLSCAYRINLAFMS
# chain 3: MNCRSEVLEVSVEGRQVEEAMLAVLHTVLLHRSTGKFHYKKEGTYSIGTVGTQDVDCDFIDFTYVRVSSEELDRALRKVVGEFKDALRNSGGDGLGQMSLEFYQKKKSRWPFSDECIPWEVWTVKVHVVALATEQERQICREKVGEKLCEKIINIVEVMNRHEYLPKMPTQSEVDNVFDTGLRDVQPYLYKISFQITDALGTSVTTTMRRLIKDTLAL
# Variants of: B1
# Test: GST pull-down; n = 3; read off a plot
row,Variant,ratio to parent
1,chain 2 METDLNSQDRKDLDKDIKFFALKTVQVIVQARLGEKICTRSSSSPTGSDWFNLAIKDIPEVTHEAKKALAGQLPAVGRSMCVEISLKTSEGDSMELEIWCLEMNEKCDKEIKVSYTVYNRLSLLLKSLLAITRVTPAYRLSRKQGHEYVILYRIYFGEVQLSGLGEGFQTVRVGTVGTPVGTITLSCAYRINLAFMS [chain 2 F16D],~0.1
2,chain 2 METDLNSQDRKDLDKFIKFFALKTVQVIVQARLGEKICTRSSSSPTGSDWFNLAIKDIPEVTHEAKKALAGQLPAVGRSMCVEISLKTSEGDSMELEIWCLEMNEKCDKEIKVSDTVYNRLSLLLKSLLAITRVTPAYRLSRKQGHEYVILYRIYFGEVQLSGLGEGFQTVRVGTVGTPVGTITLSCAYRINLAFMS [chain 2 Y115D],~0.97
3,chain 3 MNCRSEVLEVSVEGRQVEEAMLAVLHTVLLHRSTGKFHYKKEGTDSIGTVGTQDVDCDFIDFTYVRVSSEELDRALRKVVGEFKDALRNSGGDGLGQMSLEFYQKKKSRWPFSDECIPWEVWTVKVHVVALATEQERQICREKVGEKLCEKIINIVEVMNRHEYLPKMPTQSEVDNVFDTGLRDVQPYLYKISFQITDALGTSVTTTMRRLIKDTLAL [chain 3 Y45D],~0.02
4,chain 2 METDLNSQDRKDLDKFIKFFALKTVQVIVQARLGEKICTRSSSSPTGSDWFNLAIKDIPEVTHEAKKALAGQLPAVGRSMCVLISLKTSEGDSMELEIWCLEMNEKCDKEIKVSYTVYNRLSLLLKSLLAITRVTPAYRLSRKQGHEYVILYRIYFGEVQLSGLGEGFQTVRVGTVGTPVGTITLSCAYRINLAFMS [chain 2 E83L],~0.88
5,chain 2 METDLNSQDRKDLDKFIKFFALKTVQVIVQARLGEKICTRSSSSPTGSDDFNLAIKDIPEVTHEAKKALAGQLPAVGRSMCVEISLKTSEGDSMELEIWCLEMNEKCDKEIKVSYTVYNRLSLLLKSLLAITRVTPAYRLSRKQGHEYVILYRIYFGEVQLSGLGEGFQTVRVGTVGTPVGTITLSCAYRINLAFMS [chain 2 W50D],~0.02
6,"chain 3 MNCRSEVLEVSVEGRQVEEAMLAVLHTVLLHRSTGKFHYKKEGTYSIGTVGTQDVDCDFIDFTYVRVSSEELDRALRKVVGEFKDALRNSGGDGLGQMSLEFYQKKKSRDPDSDECIPWEVWTVKVHVVALATEQERQICREKVGEKLCEKIINIVEVMNRHEYLPKMPTQSEVDNVFDTGLRDVQPYLYKISFQITDALGTSVTTTMRRLIKDTLAL [chain 3 W110D, chain 3 F112D]",~0.8
7,chain 2 METDLNSQDRKDLDDFIKFFALKTVQVIVQARLGEKICTRSSSSPTGSDWFNLAIKDIPEVTHEAKKALAGQLPAVGRSMCVEISLKTSEGDSMELEIWCLEMNEKCDKEIKVSYTVYNRLSLLLKSLLAITRVTPAYRLSRKQGHEYVILYRIYFGEVQLSGLGEGFQTVRVGTVGTPVGTITLSCAYRINLAFMS [chain 2 K15D],~0.26
8,chain 2 METDLNSQDRKDLDKFIKDFALKTVQVIVQARLGEKICTRSSSSPTGSDWFNLAIKDIPEVTHEAKKALAGQLPAVGRSMCVEISLKTSEGDSMELEIWCLEMNEKCDKEIKVSYTVYNRLSLLLKSLLAITRVTPAYRLSRKQGHEYVILYRIYFGEVQLSGLGEGFQTVRVGTVGTPVGTITLSCAYRINLAFMS [chain 2 F19D],~0.02
9,chain 2 METDLNSQDRKDLDKFIKFFALKTVQVIVQARLGEKICTRSSSSPTGSDWFNLAIKDIPEVTHEAKKALAGQLPAVGRSMCVEISLKTSEGDSMELEIWCLEMNEKCDKEIKVSYTVDNRLSLLLKSLLAITRVTPAYRLSRKQGHEYVILYRIYFGEVQLSGLGEGFQTVRVGTVGTPVGTITLSCAYRINLAFMS [chain 2 Y118D],~0.03
10,chain 2 METDLNSQDRKDLDKFIDFFALKTVQVIVQARLGEKICTRSSSSPTGSDWFNLAIKDIPEVTHEAKKALAGQLPAVGRSMCVEISLKTSEGDSMELEIWCLEMNEKCDKEIKVSYTVYNRLSLLLKSLLAITRVTPAYRLSRKQGHEYVILYRIYFGEVQLSGLGEGFQTVRVGTVGTPVGTITLSCAYRINLAFMS [chain 2 K18D],~0.11
